Positions count from the first letter of the chain named. In names and notes the source's numbering stands. Each block holds one binder with its values, some of them ahead of it.
Biological target: T1, Factor VIIIa (recombinant FVIII, Kogenate FS, Bayer healthcare, activated with alpha-thrombin) (UniProt P00451 20-2351, limits assumed)
T1 construct: also called FVIIIa; cofactor
T1 sequence (looked up): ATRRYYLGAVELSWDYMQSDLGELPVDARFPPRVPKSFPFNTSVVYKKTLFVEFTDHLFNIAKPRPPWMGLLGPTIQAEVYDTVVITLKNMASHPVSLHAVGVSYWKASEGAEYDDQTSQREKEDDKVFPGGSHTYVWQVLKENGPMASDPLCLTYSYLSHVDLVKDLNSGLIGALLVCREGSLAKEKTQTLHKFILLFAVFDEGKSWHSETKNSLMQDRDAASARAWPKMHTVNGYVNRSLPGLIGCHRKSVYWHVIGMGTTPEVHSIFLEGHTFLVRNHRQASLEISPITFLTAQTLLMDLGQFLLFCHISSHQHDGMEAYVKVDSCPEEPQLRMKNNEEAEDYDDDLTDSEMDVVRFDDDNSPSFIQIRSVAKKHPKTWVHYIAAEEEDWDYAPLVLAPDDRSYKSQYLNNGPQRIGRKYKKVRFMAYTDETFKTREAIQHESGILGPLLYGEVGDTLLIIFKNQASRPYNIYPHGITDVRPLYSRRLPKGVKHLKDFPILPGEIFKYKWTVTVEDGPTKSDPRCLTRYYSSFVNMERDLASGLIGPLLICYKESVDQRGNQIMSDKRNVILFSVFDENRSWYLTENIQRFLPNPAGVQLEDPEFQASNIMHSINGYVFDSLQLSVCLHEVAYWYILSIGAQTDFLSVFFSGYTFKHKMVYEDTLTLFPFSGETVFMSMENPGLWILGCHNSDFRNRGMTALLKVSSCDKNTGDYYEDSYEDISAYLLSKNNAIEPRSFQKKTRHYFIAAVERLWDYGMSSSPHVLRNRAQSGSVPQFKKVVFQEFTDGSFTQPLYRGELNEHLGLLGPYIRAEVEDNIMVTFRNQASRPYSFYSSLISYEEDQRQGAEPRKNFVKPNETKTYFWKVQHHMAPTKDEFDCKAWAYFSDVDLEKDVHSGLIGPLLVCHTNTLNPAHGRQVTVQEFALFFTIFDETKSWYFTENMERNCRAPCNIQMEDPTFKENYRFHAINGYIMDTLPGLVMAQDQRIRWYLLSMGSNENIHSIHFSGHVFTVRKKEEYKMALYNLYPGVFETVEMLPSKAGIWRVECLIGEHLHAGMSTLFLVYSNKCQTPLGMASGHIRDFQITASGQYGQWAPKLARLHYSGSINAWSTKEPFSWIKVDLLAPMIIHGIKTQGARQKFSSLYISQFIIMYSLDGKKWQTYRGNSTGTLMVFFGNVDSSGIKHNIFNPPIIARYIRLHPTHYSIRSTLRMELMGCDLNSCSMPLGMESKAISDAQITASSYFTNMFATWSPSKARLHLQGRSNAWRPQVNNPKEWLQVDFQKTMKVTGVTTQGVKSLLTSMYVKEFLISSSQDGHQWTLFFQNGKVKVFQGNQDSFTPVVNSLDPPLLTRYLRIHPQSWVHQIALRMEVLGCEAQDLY
Experiment: same assay; KD-app of Catalyst Biosciences WT FIXa divided by KD-app of the variant
Method: The molar concentration of FVIII was then determined by absorbance at 280 nm using an extinction coefficient of 1.567 mg⁻¹ mL cm⁻¹ and a molecular weight of 163.6 kDa.

KD-WT/KD-mut: 14.1 ratio
B1: FIXa-R318Y/R338E/E410S (enzyme)
chain 1: YNSGKLEEFVQGNLERECMEEKCSFEEAREVFENTERTTEFWKQYVDGDQCESNPCLNGGSCKDDINSYECWCPFGFEGKNCELDVTCNIKNGRCEQFCKNSADNKVVCSCTEGYRLAENQKSCEPAVPFPCGRVSVSQTSKLTR
chain 2: VVGGEDAKPGQFPWQVVLNGKVDAFCGGSIVNEKWIVTAAHCVETGVKITVVAGEHNIEETEHTEQKRNVIRIIPHHNYNAAINKYNHDIALLELDEPLVLNSYVTPICIADKEYTNIFLKFGSGYVSGWGRVFHKGYSALVLQYLRVPLVDRATCLESTKFTIYNNMFCAGFHEGGRDSCQGDSGGPHVTEVEGTSFLTGIISWGEECAMKGKYGIYTKVSRYVNWIKSKTKLT
notes: also called R150Y/R170E/E240S (chymotrypsin numbering)

KD-WT/KD-mut: 6.1 ratio
B2: FIXa-R318Y/R338E/T343R/N346Y/R403E/E410N (enzyme)
chain 1: B1 chain 1
chain 2: B1 chain 2 with T163R, N166Y, R223E, S230N
notes: also called R150Y/R170E/T175R/N178Y/R233E/E240N (chymotrypsin numbering)

KD-WT/KD-mut: 1.8 ratio
B3: FIXa-R318Y/R338E/R403E/E410S (enzyme)
chain 1: B1 chain 1
chain 2: B1 chain 2 with R223E
notes: also called R150Y/R170E/R233E/E240S (chymotrypsin numbering)

KD-WT/KD-mut: 0.9 ratio
B4: FIXa-R318Y/R338E/N346D/R403E/E410N (enzyme)
chain 1: B1 chain 1
chain 2: B1 chain 2 with N166D, R223E, S230N
notes: also called R150Y/R170E/N178D/R233E/E240N (chymotrypsin numbering)

KD-WT/KD-mut: 0.8 ratio
B5: FIXa-Y259F/K265T/Y345T (enzyme)
chain 1: B1 chain 1
chain 2: B1 chain 2 with Y79F, K85T, Y138R, E158R, Y165T, S230E
notes: also called Y94F/K98T/Y177T (chymotrypsin numbering)

KD-WT/KD-mut: 0.6 ratio
B6: FIXa-Y155F/K247N/N249S/N260S (enzyme)
chain 1: B1 chain 1
chain 2: B1 chain 2 with K67N, N69S, N80S, Y138R, E158R, S230E

KD-WT/KD-mut: 1.7 ratio
B7: FIXa-R318Y/R338E/R403E/E410N/T412V (enzyme)
chain 1: B1 chain 1
chain 2: B1 chain 2 with R223E, S230N, T232V
notes: also called R150Y/R170E/R233E/E240N/T242V (chymotrypsin numbering)

KD-WT/KD-mut: 1.3 ratio
B8: FIXa-R318Y/R338E/T343R/N346D/R403E/E410N (enzyme)
chain 1: B1 chain 1
chain 2: B1 chain 2 with T163R, N166D, R223E, S230N
notes: also called R150Y/R170E/T175R/N178D/R233E/E240N (chymotrypsin numbering)

KD-WT/KD-mut: 12.8 ratio
B9: FIXa-Y155F/K247N/N249S/R318Y/R338E/E410N (enzyme)
chain 1: B1 chain 1
chain 2: B1 chain 2 with K67N, N69S, S230N

KD-WT/KD-mut: 3.1 ratio
B10: FIXa-Y155F/K228N/R318Y/R338E/R403E/E410N (enzyme)
chain 1: B1 chain 1
chain 2: B1 chain 2 with K48N, R223E, S230N

KD-WT/KD-mut: 2.4 ratio
B11: FIXa-R318Y/R338E/N346Y/R403E/E410N (enzyme)
chain 1: B1 chain 1
chain 2: B1 chain 2 with N166Y, R223E, S230N
notes: also called R150Y/R170E/N178Y/R233E/E240N (chymotrypsin numbering)

KD-WT/KD-mut: 6.6 ratio
B12: FIXa-R318Y/R338E/T343R/R403E/E410N (enzyme)
chain 1: B1 chain 1
chain 2: B1 chain 2 with T163R, R223E, S230N
notes: also called R150Y/R170E/T175R/R233E/E240N (chymotrypsin numbering)
